In publication PMC2691817 (Nucleic Acids Research, 2009):

Legend:
SeqAΔ(41-59)-A25R = target: T1, SeqAΔ(41-59)-A25R (Escherichia coli, UniProt P0AFY8 1-181, A25R;del41-59); experiment: EMSA
T1 sequence: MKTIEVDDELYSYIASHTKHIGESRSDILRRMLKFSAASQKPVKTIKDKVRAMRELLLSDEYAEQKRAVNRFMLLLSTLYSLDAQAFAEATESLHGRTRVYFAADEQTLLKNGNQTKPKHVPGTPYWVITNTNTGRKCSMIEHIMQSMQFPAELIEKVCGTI

SEC = target: the molecule itself; experiment: SEC

B1: hemimethylated tandem GATC duplex (crystallization oligonucleotide) (dsDNA)
DNA 1: GAGTCGATCGGCGGGATCCTTA
DNA 2: TCTAAGGATCCCGCCGATCGAC
modifications: N6-methyladenine at positions 7 and 16 of strand 1; strand 2 unmethylated
Which Kd (SeqAΔ(41-59)-A25R) does the source give for B1 here?
The Kd was roughly 90 nM.

B2: SeqA-A25R (natural protein, E. coli, UniProt P0AFY8 1-181, looked up)
chain: MKTIEVDDELYSYIASHTKHIGESRSDILRRMLKFSAASQPAAPVTKEVRVASPAIVEAKPVKTIKDKVRAMRELLLSDEYAEQKRAVNRFMLLLSTLYSLDAQAFAEATESLHGRTRVYFAADEQTLLKNGNQTKPKHVPGTPYWVITNTNTGRKCSMIEHIMQSMQFPAELIEKVCGTI
Does B2 bind (SEC)?
Result: binds

B3: SeqAΔ(41–59)-A25R (natural protein, E. coli, UniProt P0AFY8 1-181, looked up)
chain: T1 sequence
Which “stoichiometry N” value (SEC) does the source give for B3 here?
The value was 2.
